From publication PMC10397247
Like-named read-outs stand apart in the source and are kept apart here.

What was measured:
P6-AA-1HGe-T = molecular target: T1, P6-AA-1HGe-T; experiment: two-hybrid library CCmax; settings: mean of both orientations;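 further: natural log of median RNA to DNA barcode read ratio; higher means stronger binding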
T1 chain: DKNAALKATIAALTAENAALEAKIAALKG

P6-AA-1HGe-H = molecular target: T2, P6-AA-1HGe-H; experiment: two-hybrid library CCmax; settings: mean of both orientations;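 further: natural log of median RNA to DNA barcode read ratio; higher means stronger binding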
T2 chain: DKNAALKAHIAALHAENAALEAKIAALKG

P6-AA-1HGe-S = molecular target: T3, P6-AA-1HGe-S; experiment: two-hybrid library CCmax; settings: mean of both orientations;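 further: natural log of median RNA to DNA barcode read ratio; higher means stronger binding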
T3 chain: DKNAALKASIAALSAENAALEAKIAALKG

P6-AA-1HGe-D = molecular target: T4, P6-AA-1HGe-D; experiment: two-hybrid library CCmax;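 further: natural log of median RNA to DNA barcode read ratio; higher means stronger binding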
T4 chain: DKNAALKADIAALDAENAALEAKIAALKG

P6-AA-1HGe-M = molecular target: T5, P6-AA-1HGe-M; experiment: two-hybrid library CCmax; settings: mean of both orientations
T5 chain: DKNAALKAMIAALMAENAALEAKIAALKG

P6-AA-1HGe-R = molecular target: T6, P6-AA-1HGe-R; experiment: two-hybrid library CCmax; settings: mean of both orientations
T6 chain: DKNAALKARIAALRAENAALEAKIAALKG

P6-AA-1HGe-W = molecular target: T7, P6-AA-1HGe-W; experiment: two-hybrid library CCmax; settings: mean of both orientations
T7 chain: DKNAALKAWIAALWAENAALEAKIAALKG

P6-AA-1HGe-A = molecular target: T8, P6-AA-1HGe-A; experiment: two-hybrid library CCmax; settings: mean of both orientations
T8 chain: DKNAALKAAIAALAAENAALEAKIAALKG

P6-AA-1HGe-Q = molecular target: T9, P6-AA-1HGe-Q; experiment: two-hybrid library CCmax; settings: mean of both orientations
T9 chain: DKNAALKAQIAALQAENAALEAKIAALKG

P9-AA = molecular target: T10, P9-AA; experiment: two-hybrid library CCmax; settings: mean of both orientations
T10 chain: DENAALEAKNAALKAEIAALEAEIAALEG

O7-AA = molecular target: T11, O7-AA; experiment: two-hybrid library CCmax; settings: mean of both orientations
T11 chain: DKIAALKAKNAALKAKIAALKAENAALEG

O6-AA = molecular target: T12, O6-AA; experiment: two-hybrid library CCmax; settings: mean of both orientations
T12 chain: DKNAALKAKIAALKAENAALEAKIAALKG

O5-AA = molecular target: T13, O5-AA; experiment: two-hybrid library CCmax
T13 chain: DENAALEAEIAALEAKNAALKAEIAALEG

P10-AA = molecular target: T14, P10-AA; experiment: two-hybrid library CCmax; settings: mean of both orientations
T14 chain: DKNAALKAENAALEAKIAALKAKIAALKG

O8-AA = molecular target: T15, O8-AA; experiment: two-hybrid library CCmax; settings: mean of both orientations
T15 chain: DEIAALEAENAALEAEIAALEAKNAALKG

P9mSN = molecular target: T16, P9mSN; experiment: two-hybrid library CCNG1
T16 chain: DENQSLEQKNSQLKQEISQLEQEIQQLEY

P8mSN = molecular target: T17, P8mSN; experiment: two-hybrid library CCNG1
T17 chain: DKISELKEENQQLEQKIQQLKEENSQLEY

Binder | interaction score (P6-AA-1HGe-T) | interaction score (P6-AA-1HGe-H) | interaction score (P6-AA-1HGe-S) | interaction score (P6-AA-1HGe-D; mean of both orientations) | interaction score (P6-AA-1HGe-M) | interaction score (P6-AA-1HGe-R) | interaction score (P6-AA-1HGe-W) | interaction score (P6-AA-1HGe-A) | interaction score (P6-AA-1HGe-Q) | interaction score (P9-AA) | interaction score (O7-AA) | interaction score (O6-AA) | interaction score (O5-AA) | interaction score (P10-AA) | interaction score (O8-AA) | interaction score (P9mSN) | interaction score (P8mSN) | interaction score (P6-AA-1HGe-D)
DENAALEAMIAALMAKNAALKAEIAALEG [P5-AA-1HGe-M] | 2.3 | 2.03 | 1.92 | 1.82 | 2.35 | 1.93 | 2.11 | 2.5 | 2.27 |  |  |  |  |  |  |  |  | 
DENAALEAEIAALEAKNAALKAEIAALEG [O5-AA] | 2.21 | 2.44 | 2.12 | 0.905 | 2.3 | 2.38 | 2.02 | 2.15 | 2.4 | -1.56 | -0.71 | 1.88 | -1.71 | 0.434 | -0.935 |  |  | 
DKISELKEENQQLEQKIQQLKEENSQLEY [P8mSN] |  |  |  |  |  |  |  |  |  |  |  |  |  |  |  | -1.04 | -0.489 | 
DENAALEARIAALRAKNAALKAEIAALEG [P5-AA-1HGe-R] | 1.66 | 1.64 | 1.48 | 1.74 | 1.53 | 1.45 | 1.25 | 2.25 | 1.9 |  |  |  |  |  |  |  |  | 
DENAALEAYIAALYAKNAALKAEIAALEG [P5-AA-1HGe-Y] | 2.24 | 1.95 | 1.94 | 1.37 | 1.95 | 1.82 | 1.32 | 1.95 | 2.22 |  |  |  |  |  |  |  |  | 
DENAALEATIAALTAKNAALKAEIAALEG [P5-AA-1HGe-T] | 2.05 | 2.03 | 1.91 |  | 2.18 | 2.02 | 1.71 | 2.2 | 2.32 |  |  |  |  |  |  |  |  | 1.95
DENAALEAWIAALWAKNAALKAEIAALEG [P5-AA-1HGe-W] | 2.11 | 1.34 | 1.46 | 0.67 | 1.92 | 1.42 | 0.892 | 1.97 | 2.17 |  |  |  |  |  |  |  |  | 
DENAALEAAIAALAAKNAALKAEIAALEG [P5-AA-1HGe-A] | 2.02 | 1.73 | 1.63 | 1.06 | 2.21 | 2.03 | 1.57 | 2.12 | 2.31 |  |  |  |  |  |  |  |  | 
DENAALEADIAALDAKNAALKAEIAALEG [P5-AA-1HGe-D] | 1.14 | 0.69 | -0.145 | -1.28 | 0.758 | 1.62 | -0.238 | 0.812 | 1.12 |  |  |  |  |  |  |  |  | 
DENAALEASIAALSAKNAALKAEIAALEG [P5-AA-1HGe-S] | 1.76 | 1.75 | 1.13 | 0.0672 | 1.86 | 2.01 | 0.993 | 1.91 | 2.1 |  |  |  |  |  |  |  |  | 
DENAALEAQIAALQAKNAALKAEIAALEG [P5-AA-1HGe-Q] | 2.32 | 2.05 | 2.03 | 1.58 | 2.3 | 2.05 | 1.97 | 2.25 | 2.07 |  |  |  |  |  |  |  |  | 
